# Residue numbers refer to the chain shown, from its start.
# B1: 2D-VCAM-1 variant Clone 151 (ligand)
# chain: FKIETTPESRYLAQIGDSVSLTCSTTGCESPSFYWRPQLDAPLNGKVTNEGTTSTLTMNPVSFGNEHSYLCTAACESRRLEKGIQVEIYSFPKDPEIHLSGPLEAGKPITVKCSVADVYPFDRLEIDLLKGDHLMKSQEFLEDADRKSLETKSLEVTFTPVIEDIGKVLVCRAKLHIDEMDSVPTVRQAVKELQVYISP
# notes: not shown: His tag
# B2: 146R7 (ligand)
# chain: FKIETTPESRYLAQIGDSVSLTCSTTGCESPLFFWRPLLDSPLNGKVTNEGTTSTLTMNPVSFGNEHSYLCTARCESRKLEKGIQVEIYSFPKDPEIHLSGPLEAGKPITVKCSVADVYPFDRLEIDLLKGDHLMKSQEFLEDADRKSLETKSLEVTFTPVIEDIGKVLVCRAKLHIDEMDSVPTVRQAVKELQVYISPGGGSDYKDDDDKGGGSDYKDDDDKGGGSDYKDDDDKGS
# notes: Crude CHO-S supernatant, 3x spacer-FLAG tagged
# B3: 146R13 (ligand)
# chain: B2 chain with L32F
# notes: as for B2
# B4: 146R22 (ligand)
# chain: B2 chain with P37T
# notes: as for B2
# B5: 146R6 (ligand)
# chain: B2 chain with R74T, K79S
# notes: as for B2
# B6: 146R5 (ligand)
# chain: B2 chain with L39I, K79S
# notes: as for B2
# B7: 146R18 (ligand)
# chain: B2 chain with L32F, L39I, R74T
# notes: as for B2
# B8: 146R9 (ligand)
# chain: B2 chain with L32F, L38Q, K79S
# notes: as for B2
# B9: 146R10 (ligand)
# chain: B2 chain with L32F, R74T
# notes: as for B2
# B10: 146R20 (ligand)
# chain: B2 chain with L32F, L38Q, L39I, K79S
# notes: as for B2
# B11: 146R19 (ligand)
# chain: B2 chain with L32F, L38Q, L39I
# notes: as for B2
# B12: 146R8 (ligand)
# chain: B2 chain with R74T
# notes: as for B2
# B13: 146R12 (ligand)
# chain: B2 chain with L32F, F34S, R74T
# notes: as for B2
# B14: 146R1 (ligand)
# chain: B2 chain with L32F, K79S
# notes: as for B2
# B15: 146R4 (ligand)
# chain: B2 chain with L38Q, K79S
# notes: as for B2
# B16: 146R2 (ligand)
# chain: B2 chain with F34S, K79S
# notes: as for B2
# B17: 146R16 (ligand)
# chain: B2 chain with L32F, L39I, K79S
# notes: Crude CHO-S supernatant, 3x spacer-FLAG tagged; The cell prints N: 131
# B18: 146R21 (ligand)
# chain: B2 chain with L32F, P37T, K79S
# notes: Crude CHO-S supernatant, 3x spacer-FLAG tagged; also called I46R21
# B19: 146R23 (ligand)
# chain: B2 chain with L32F, P37T
# notes: as for B2
# B20: 146R11 (ligand)
# chain: B2 chain with L38Q, R74T
# notes: as for B2
# B21: 146R14 (ligand)
# chain: B2 chain with L39I
# notes: as for B2
# B22: 146R17 (ligand)
# chain: B2 chain with L32F, L39I
# notes: as for B2
# B23: 146R3 (ligand)
# chain: B2 chain with P37T, K79S
# notes: as for B2
# B24: 146R15 (ligand)
# chain: B2 chain with L32F, L38Q
# notes: as for B2
# B25: 146R0 (Clone 146 with three spacer-FLAG tags, CHO-S supernatant) (ligand)
# chain: FKIETTPESRYLAQIGDSVSLTCSTTGCESPLFFWRPLLDSPLNGKVTNEGTTSTLTMNPVSFGNEHSYLCTARCESRSLEKGIQVEIYSFPKDPEIHLSGPLEAGKPITVKCSVADVYPFDRLEIDLLKGDHLMKSQEFLEDADRKSLETKSLEVTFTPVIEDIGKVLVCRAKLHIDEMDSVPTVRQAVKELQVYISPGGGSDYKDDDDKGGGSDYKDDDDKGGGSDYKDDDDK
# notes: assayed as concentrated, filtered crude supernatant
# Target: T1, human VLA4-Fc (alpha4-Fc/beta1-Fc heterodimer) (human)
# T1 construct: Soluble heterodimer from CHO cells, Protein A purified; also called VLA-Fc
# Experiment: ELISA, VLA4-Fc coated, 1 mM MnCl2; from EC50 values
# Experimental: The relative binding affinities of various 2D-VCAM-1 variants to immobilized VLA4-Fc (α4-β1-Fc) heterodimer, relative to a control protein (e.g., Q38L-2D-VCAM-1 or to human 2D-VCAM-1), were deter using a solid-phase ELISA assay. MAXISORP™ ELISA plates (NUNC) were coated overnight at 4° C. with 50 ul VLA4-Fc heterodimer, 2 ug/ml in TBS-M (TBS (25 mM Tris-HCl pH 7.5, 150 mM NaCl) with 1 mM MnCl2), washed with TBS-T (TBS with 0.05% TWEEN-20), blocked with 200 ul 3% milk in TBS-M for 1 h at room temperature, and washed again with TBS-T. A four-fold dilution series of the purified 2D-VCAM variants to be assayed was made in COSTAR U-bottom plates in TBS-TMC (TBS with 0.05% Tween-20, 1 mM MnCl2, and 1% casein; Sigma) with a starting concentration of 8.2 uM (200 ug/ml). The dilution series was transferred into the ELISA plate which was incubated at room temperature for 2 h and subsequently washed with TBS-T. Bound 2D-VCAM protein was detected by incubation with 0.5 ug/ml of biotinylated anti-human VCAM antibody (R&D Systems, Catalog No. BAF809) in TBS-TMC for 1 h at room temperature followed by a TBS-MT (TBS plus 1 mM MnCl2 and 0.02% TWEEN-20) wash and subsequent incubation with 1:2000 dilution of streptavidin-HRP (BD Biosciences, Catalog No. 554066) in TBS-TMC for 30 min at room temperature. […] Typical development times ranged from […] and development was stopped by addition of 50 ul 2M H₂SO₄ (EM, Catalog No. SX1244-75). […] Fold-improvement in binding was calculated relative to a control protein (e.g., Q38L-2D-VCAM-1 or human 2D-VCAM-1) assayed on the same plate.
# T1 sequence (chain, as listed by the source limits assumed, form in doubt, chain 1 of 2): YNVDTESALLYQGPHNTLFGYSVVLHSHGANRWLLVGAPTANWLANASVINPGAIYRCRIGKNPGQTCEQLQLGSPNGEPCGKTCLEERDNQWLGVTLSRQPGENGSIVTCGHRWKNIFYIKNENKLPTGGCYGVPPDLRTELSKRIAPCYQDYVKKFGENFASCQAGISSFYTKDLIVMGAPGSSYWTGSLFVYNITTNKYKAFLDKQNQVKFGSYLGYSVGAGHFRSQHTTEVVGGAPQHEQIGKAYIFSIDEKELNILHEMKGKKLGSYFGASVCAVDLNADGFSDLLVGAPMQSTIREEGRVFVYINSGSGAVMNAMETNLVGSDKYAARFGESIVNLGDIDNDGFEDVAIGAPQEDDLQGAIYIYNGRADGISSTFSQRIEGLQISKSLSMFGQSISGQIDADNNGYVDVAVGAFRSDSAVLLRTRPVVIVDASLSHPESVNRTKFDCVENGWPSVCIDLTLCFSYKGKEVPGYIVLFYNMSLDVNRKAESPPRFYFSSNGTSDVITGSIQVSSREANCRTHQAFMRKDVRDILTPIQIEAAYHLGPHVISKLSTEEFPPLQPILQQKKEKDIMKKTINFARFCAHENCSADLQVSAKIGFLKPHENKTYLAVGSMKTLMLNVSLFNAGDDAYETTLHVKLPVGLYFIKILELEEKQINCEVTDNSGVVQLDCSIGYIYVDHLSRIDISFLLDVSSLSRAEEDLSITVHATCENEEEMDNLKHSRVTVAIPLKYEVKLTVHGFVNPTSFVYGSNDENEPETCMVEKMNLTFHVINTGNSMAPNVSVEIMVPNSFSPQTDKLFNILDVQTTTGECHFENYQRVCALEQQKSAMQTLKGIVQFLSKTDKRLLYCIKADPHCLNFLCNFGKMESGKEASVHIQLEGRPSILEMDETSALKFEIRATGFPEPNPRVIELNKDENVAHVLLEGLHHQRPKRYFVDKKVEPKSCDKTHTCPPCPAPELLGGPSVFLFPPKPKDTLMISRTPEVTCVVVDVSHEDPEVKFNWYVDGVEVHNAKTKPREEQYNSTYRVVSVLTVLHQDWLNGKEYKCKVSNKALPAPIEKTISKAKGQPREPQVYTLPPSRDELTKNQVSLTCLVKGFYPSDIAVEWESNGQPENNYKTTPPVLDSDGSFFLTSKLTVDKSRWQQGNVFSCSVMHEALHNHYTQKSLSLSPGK
# T1 sequence (chain, as listed by the source limits assumed, form in doubt, chain 2 of 2): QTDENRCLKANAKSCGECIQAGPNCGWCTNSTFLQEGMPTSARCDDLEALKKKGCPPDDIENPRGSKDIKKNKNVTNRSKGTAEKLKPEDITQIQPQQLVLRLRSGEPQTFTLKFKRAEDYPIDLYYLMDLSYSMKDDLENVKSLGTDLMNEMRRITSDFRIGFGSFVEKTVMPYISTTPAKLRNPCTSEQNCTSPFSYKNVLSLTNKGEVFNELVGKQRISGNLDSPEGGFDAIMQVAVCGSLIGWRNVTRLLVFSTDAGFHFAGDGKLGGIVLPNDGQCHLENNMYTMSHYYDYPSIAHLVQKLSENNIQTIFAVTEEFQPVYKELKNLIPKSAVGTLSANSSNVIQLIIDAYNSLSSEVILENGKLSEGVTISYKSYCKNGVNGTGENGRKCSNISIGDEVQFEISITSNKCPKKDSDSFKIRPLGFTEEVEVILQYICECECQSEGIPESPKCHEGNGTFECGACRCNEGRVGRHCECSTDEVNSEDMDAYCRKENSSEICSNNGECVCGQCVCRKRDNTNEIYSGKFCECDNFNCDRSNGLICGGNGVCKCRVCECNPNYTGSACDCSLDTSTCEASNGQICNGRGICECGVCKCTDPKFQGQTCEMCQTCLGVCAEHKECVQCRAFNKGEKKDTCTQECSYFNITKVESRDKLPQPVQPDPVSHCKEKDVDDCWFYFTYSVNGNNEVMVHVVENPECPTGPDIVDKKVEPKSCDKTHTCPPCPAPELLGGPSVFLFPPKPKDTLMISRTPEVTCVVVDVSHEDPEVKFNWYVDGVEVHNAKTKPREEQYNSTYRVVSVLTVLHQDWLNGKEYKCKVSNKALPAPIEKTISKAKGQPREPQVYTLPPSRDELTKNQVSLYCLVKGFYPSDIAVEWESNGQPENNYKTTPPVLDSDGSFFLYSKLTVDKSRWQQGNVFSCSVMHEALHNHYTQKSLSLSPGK
Binder,fold-improvement in binding relative to Q38L-2D-VCAM-1 [fold],fold-improvement in binding relative to human 2D-VCAM-1 [fold]
B1,2,16

# Target: T1, human VLA4-Fc (alpha4-Fc/beta1-Fc …)
# Experiment: SPR (BIACORE), crude CHO-S supernatant on VLA4-Fc
row,Binder,fold weaker binding relative to 146R0 (KD(variant)/KD(146R0)) [fold]
1,B2,1
2,B3,2.3
3,B4,1.6
4,B5,1.8
5,B6,1.2
6,B7,6.3
7,B8,2
8,B9,2.7
9,B10,9.3
10,B11,40
11,B12,1.7
12,B13,21.7
13,B14,1.1
14,B15,2.6
15,B16,2.7
16,B17,1.1
17,B18,1
18,B19,6.1
19,B20,25.9
20,B21,1.5
21,B22,2.8
22,B23,1.3
23,B24,5.3
24,B25,1
